Results taken from the supplement of paper PMC10567573.

B1: ZNF263 (parent)
chain: KPYKCTLCGENFSHRSNLIRHQRI

Variants of: B1
Assay: protein stability index of a GFP-peptide fusion (GPS, HEK-293T) (PSI 1-6); higher = more stable
Conditions: c terminus: a fixed tail appended
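Note: lentivirally expressed fusions sorted by FACS into six bins by GFP to DsRed ratio, PSI derived from sequencing read proportions per bin multiplied by bin number.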

| Variant | protein stability index |
| --- | --- |
| APYKCTLCGENFSHRSNLIRHQRI [K1A] | 2.19 |
| CPYKCTLCGENFSHRSNLIRHQRI [K1C] | 2.67 |
| DPYKCTLCGENFSHRSNLIRHQRI [K1D] | 3.07 |
| EPYKCTLCGENFSHRSNLIRHQRI [K1E] | 3.25 |
| FPYKCTLCGENFSHRSNLIRHQRI [K1F] | 2.56 |
| GPYKCTLCGENFSHRSNLIRHQRI [K1G] | 2.27 |
| HPYKCTLCGENFSHRSNLIRHQRI [K1H] | 2.47 |
| IPYKCTLCGENFSHRSNLIRHQRI [K1I] | 2.16 |
| LPYKCTLCGENFSHRSNLIRHQRI [K1L] | 2.25 |
| MPYKCTLCGENFSHRSNLIRHQRI [K1M] | 2.65 |
| NPYKCTLCGENFSHRSNLIRHQRI [K1N] | 2.12 |
| PPYKCTLCGENFSHRSNLIRHQRI [K1P] | 3.08 |
| QPYKCTLCGENFSHRSNLIRHQRI [K1Q] | 2.38 |
| RPYKCTLCGENFSHRSNLIRHQRI [K1R] | 2.66 |
| SPYKCTLCGENFSHRSNLIRHQRI [K1S] | 2.81 |
| TPYKCTLCGENFSHRSNLIRHQRI [K1T] | 2.08 |
| VPYKCTLCGENFSHRSNLIRHQRI [K1V] | 1.56 |
| WPYKCTLCGENFSHRSNLIRHQRI [K1W] | 1.92 |
| YPYKCTLCGENFSHRSNLIRHQRI [K1Y] | 2.69 |
| KAYKCTLCGENFSHRSNLIRHQRI [P2A] | 2.7 |
| KCYKCTLCGENFSHRSNLIRHQRI [P2C] | 2.02 |
| KDYKCTLCGENFSHRSNLIRHQRI [P2D] | 2.3 |
| KEYKCTLCGENFSHRSNLIRHQRI [P2E] | 2.67 |
| KFYKCTLCGENFSHRSNLIRHQRI [P2F] | 2.12 |

| Variant | protein stability index |
| --- | --- |
| KGYKCTLCGENFSHRSNLIRHQRI [P2G] | 2.77 |
| KHYKCTLCGENFSHRSNLIRHQRI [P2H] | 2.49 |
| KIYKCTLCGENFSHRSNLIRHQRI [P2I] | 2.33 |
| KKYKCTLCGENFSHRSNLIRHQRI [P2K] | 2.92 |
| KLYKCTLCGENFSHRSNLIRHQRI [P2L] | 2.53 |
| KMYKCTLCGENFSHRSNLIRHQRI [P2M] | 2.05 |
| KNYKCTLCGENFSHRSNLIRHQRI [P2N] | 2.49 |
| KQYKCTLCGENFSHRSNLIRHQRI [P2Q] | 2.09 |
| KRYKCTLCGENFSHRSNLIRHQRI [P2R] | 3.12 |
| KSYKCTLCGENFSHRSNLIRHQRI [P2S] | 2.59 |
| KTYKCTLCGENFSHRSNLIRHQRI [P2T] | 2.53 |
| KVYKCTLCGENFSHRSNLIRHQRI [P2V] | 2.98 |
| KWYKCTLCGENFSHRSNLIRHQRI [P2W] | 2.05 |
| KYYKCTLCGENFSHRSNLIRHQRI [P2Y] | 2.14 |
| KPAKCTLCGENFSHRSNLIRHQRI [Y3A] | 1.9 |
| KPCKCTLCGENFSHRSNLIRHQRI [Y3C] | 2.47 |
| KPDKCTLCGENFSHRSNLIRHQRI [Y3D] | 1.84 |
| KPEKCTLCGENFSHRSNLIRHQRI [Y3E] | 1.78 |
| KPFKCTLCGENFSHRSNLIRHQRI [Y3F] | 2.23 |
| KPGKCTLCGENFSHRSNLIRHQRI [Y3G] | 1.84 |
| KPHKCTLCGENFSHRSNLIRHQRI [Y3H] | 1.34 |
| KPIKCTLCGENFSHRSNLIRHQRI [Y3I] | 1.55 |
| KPKKCTLCGENFSHRSNLIRHQRI [Y3K] | 3.17 |
| KPLKCTLCGENFSHRSNLIRHQRI [Y3L] | 2.64 |

| Variant | protein stability index |
| --- | --- |
| KPMKCTLCGENFSHRSNLIRHQRI [Y3M] | 1.73 |
| KPNKCTLCGENFSHRSNLIRHQRI [Y3N] | 2.47 |
| KPPKCTLCGENFSHRSNLIRHQRI [Y3P] | 1.85 |
| KPQKCTLCGENFSHRSNLIRHQRI [Y3Q] | 2.14 |
| KPRKCTLCGENFSHRSNLIRHQRI [Y3R] | 3.54 |
| KPSKCTLCGENFSHRSNLIRHQRI [Y3S] | 2.11 |
| KPTKCTLCGENFSHRSNLIRHQRI [Y3T] | 2.4 |
| KPVKCTLCGENFSHRSNLIRHQRI [Y3V] | 2.28 |
| KPWKCTLCGENFSHRSNLIRHQRI [Y3W] | 2.42 |
| KPYACTLCGENFSHRSNLIRHQRI [K4A] | 2.32 |
| KPYCCTLCGENFSHRSNLIRHQRI [K4C] | 1.7 |
| KPYDCTLCGENFSHRSNLIRHQRI [K4D] | 1.75 |
| KPYECTLCGENFSHRSNLIRHQRI [K4E] | 2.35 |
| KPYFCTLCGENFSHRSNLIRHQRI [K4F] | 2.01 |
| KPYGCTLCGENFSHRSNLIRHQRI [K4G] | 2.35 |
| KPYHCTLCGENFSHRSNLIRHQRI [K4H] | 2.95 |
| KPYICTLCGENFSHRSNLIRHQRI [K4I] | 2.87 |
| KPYLCTLCGENFSHRSNLIRHQRI [K4L] | 1.84 |
| KPYMCTLCGENFSHRSNLIRHQRI [K4M] | 2.23 |
| KPYNCTLCGENFSHRSNLIRHQRI [K4N] | 1.94 |
| KPYPCTLCGENFSHRSNLIRHQRI [K4P] | 1.96 |
| KPYQCTLCGENFSHRSNLIRHQRI [K4Q] | 2.48 |
| KPYRCTLCGENFSHRSNLIRHQRI [K4R] | 2.54 |
| KPYSCTLCGENFSHRSNLIRHQRI [K4S] | 1.9 |

| Variant | protein stability index |
| --- | --- |
| KPYTCTLCGENFSHRSNLIRHQRI [K4T] | 2.52 |
| KPYVCTLCGENFSHRSNLIRHQRI [K4V] | 2.87 |
| KPYWCTLCGENFSHRSNLIRHQRI [K4W] | 2.35 |
| KPYYCTLCGENFSHRSNLIRHQRI [K4Y] | 2.16 |
| KPYKATLCGENFSHRSNLIRHQRI [C5A] | 2.52 |
| KPYKDTLCGENFSHRSNLIRHQRI [C5D] | 2.69 |
| KPYKETLCGENFSHRSNLIRHQRI [C5E] | 2.19 |
| KPYKFTLCGENFSHRSNLIRHQRI [C5F] | 1.45 |
| KPYKGTLCGENFSHRSNLIRHQRI [C5G] | 2.22 |
| KPYKHTLCGENFSHRSNLIRHQRI [C5H] | 2.34 |
| KPYKITLCGENFSHRSNLIRHQRI [C5I] | 1.75 |
| KPYKKTLCGENFSHRSNLIRHQRI [C5K] | 2.44 |
| KPYKLTLCGENFSHRSNLIRHQRI [C5L] | 2.47 |
| KPYKMTLCGENFSHRSNLIRHQRI [C5M] | 1.67 |
| KPYKNTLCGENFSHRSNLIRHQRI [C5N] | 2.41 |
| KPYKPTLCGENFSHRSNLIRHQRI [C5P] | 2.44 |
| KPYKQTLCGENFSHRSNLIRHQRI [C5Q] | 3.12 |
| KPYKRTLCGENFSHRSNLIRHQRI [C5R] | 1.86 |
| KPYKSTLCGENFSHRSNLIRHQRI [C5S] | 2.43 |
| KPYKTTLCGENFSHRSNLIRHQRI [C5T] | 2.09 |
| KPYKVTLCGENFSHRSNLIRHQRI [C5V] | 2.06 |
| KPYKWTLCGENFSHRSNLIRHQRI [C5W] | 1.61 |
